Tested on: poly-L-lysine (PLL, 30-70 kDa, Sigma P2636)
Test: EMSA
Settings: 10 mM Tris pH 7.5, 100 mM KCl, 5% glycerol, 30 min at room temperature

Row | Sequence | Kd
1 | TTAGAATTAGAATTAGAATTAGAA [dTERRA_M2 [TTAGAA]4] | 34 nM
2 | UUAGAAUUAGAAUUAGAAUUAGAA [rTERRA_M2 [UUAGAA]4] | 7.4 nM

Reference: doi:10.1101/2025.06.23.656378
